Where a chain is given by its changes, count along the chain named. Names may count otherwise.
Experiments:
[1] = molecular target: T1, TetR (class B, from Tn10) (Escherichia coli, UniProt P04483); assay: BLI, release of TetR roadblock from tetO DNA; format: binding; conditions: 3 uM ahTc, 1 uM TetR, 1 uM ParB, 1 mM CTP, 170 bp closed parS-tetO DNA, Mg2+, 22 °C
T1 construct: C-terminal His6 (pET21b), E. coli Rosetta (DE3)

Caulobacter ParB [2] = molecular target: T2, Caulobacter ParB (Caulobacter vibrioides, UniProt B8GW30); assay: DRaCALA membrane-spotting with radiolabelled CTP; format: binding; conditions: 22 bp parS DNA needed, Mg2+, pH 8.0, room temperature; labelled compound
T2 construct: full-length, C-terminal His6 (pET21b), E. coli Rosetta (DE3), dimer

Zymomonas mobilis ParB = molecular target: T3, Zymomonas mobilis ParB (Zymomonas mobilis, UniProt F8ETX3); assay: BLI, ParB accumulation on closed […] bp parS DNA; format: biochemical; conditions: 0.01 mM CTP, 1 uM ParB, Mg2+, pH 8.0, 22 °C
T3 construct: N-terminal His6-MBP (TEV) tag kept, E. coli Rosetta (DE3); chromosomal ParB
T3 sequence (F8ETX3 1-311): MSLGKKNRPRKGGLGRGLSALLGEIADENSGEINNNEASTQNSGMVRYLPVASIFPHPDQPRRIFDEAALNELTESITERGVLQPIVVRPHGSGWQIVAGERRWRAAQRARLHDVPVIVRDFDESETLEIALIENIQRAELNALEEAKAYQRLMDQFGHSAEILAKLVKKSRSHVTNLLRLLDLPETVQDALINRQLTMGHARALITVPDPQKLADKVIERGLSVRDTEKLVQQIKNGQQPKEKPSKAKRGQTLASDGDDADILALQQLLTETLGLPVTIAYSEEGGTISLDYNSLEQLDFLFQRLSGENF

Caulobacter ParB [3] = molecular target: T4, Caulobacter ParB (Caulobacter vibrioides, UniProt B8GW30, Q35C/C297S); assay: BMOE cross-linking of N-terminal domains, SDS-PAGE; format: binding; conditions: 1 mM CTP, 10 uM ParB, no parS DNA, Mg2+, pH 7.4, room temperature
T4 construct: full-length, C-terminal His6 (pET21b), E. coli Rosetta (DE3), dimer
T4 sequence (B8GW30 whole entry Q35C/C297S, the tested form may be a part): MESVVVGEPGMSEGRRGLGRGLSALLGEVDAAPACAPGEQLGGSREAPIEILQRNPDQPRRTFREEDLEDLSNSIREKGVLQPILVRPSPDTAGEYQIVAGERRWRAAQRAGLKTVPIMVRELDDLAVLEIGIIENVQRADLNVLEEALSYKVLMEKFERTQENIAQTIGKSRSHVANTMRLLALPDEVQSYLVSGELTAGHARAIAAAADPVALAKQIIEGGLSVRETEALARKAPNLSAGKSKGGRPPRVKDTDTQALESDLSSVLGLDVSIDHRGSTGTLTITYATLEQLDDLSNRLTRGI

Caulobacter ParB [4] = molecular target: T5, Caulobacter ParB (Caulobacter vibrioides, UniProt B8GW30, C297S); assay: BLI, ParB accumulation on closed […] bp parS DNA; format: biochemical; conditions: 1 mM CTP, 1 uM ParB, Mg2+, pH 8.0, 22 °C; legend prints C97S in one place
T5 construct: full-length, C-terminal His6 (pET21b), E. coli Rosetta (DE3), dimer
T5 sequence (B8GW30 whole entry C297S): as the sequence (B8GW30 whole entry Q35C/C297S, the tested form may be a part) above, with C35Q counted along it

[5] = molecular target: T6, Xanthomonas campestris ParB (Xanthomonas campestris, UniProt Q8P466); assay: BLI, ParB accumulation on closed […] bp parS DNA; format: biochemical; conditions: 0.01 mM CTP, 1 uM ParB, Mg2+, pH 8.0, 22 °C
T6 construct: N-terminal His6-MBP (TEV) tag kept, E. coli Rosetta (DE3); chromosomal ParB
T6 sequence (Q8P466 1-309): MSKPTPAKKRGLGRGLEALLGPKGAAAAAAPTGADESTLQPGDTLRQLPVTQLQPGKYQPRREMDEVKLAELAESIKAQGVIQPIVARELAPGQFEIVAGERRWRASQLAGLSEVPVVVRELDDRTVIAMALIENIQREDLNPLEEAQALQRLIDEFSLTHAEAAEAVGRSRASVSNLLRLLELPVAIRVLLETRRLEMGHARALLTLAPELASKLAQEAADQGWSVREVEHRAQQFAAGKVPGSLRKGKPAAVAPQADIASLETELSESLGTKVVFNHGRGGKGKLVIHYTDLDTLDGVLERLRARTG

[6] = molecular target: the molecule itself; assay: cross-linking; 10 µM ParB (Q35C C297S) ± 1 mM NTP (CTP, CTPγS or other NTPs) ± 0.5 µM 22 bp parS dsDNA in 10 mM Tris-HCl pH 7.4, 100 mM NaCl, 1 mM MgCl2, room temperature, 15 min or 1-30 min time course, then 1 mM BMOE; SDS-PAGE, InstantBlue stain
[7] = molecular target: T7, Caulobacter ParB-His6 (WT) (Caulobacter crescentus, UniProt B8GW30 1-304); assay: BLI; ParB-CTP prebound; dissociation in 1 mM CTP, Mg2+; BLI at 22 C: 100 mM Tris-HCl pH 8.0, 100 mM NaCl, 1 mM MgCl2, 0.005% Tween 20; 1 uM protein dimer. Pull-down: same buffer, room temperature, 5 min, 1 uM ParB, 1 mM NTP; conditions: protein: recombinant; tags: C-terminal His6; chain copies: 2; label: biotin at both 5' ends; blunt; both ends tethered (closed); polymerase may add 3' A
T7 sequence: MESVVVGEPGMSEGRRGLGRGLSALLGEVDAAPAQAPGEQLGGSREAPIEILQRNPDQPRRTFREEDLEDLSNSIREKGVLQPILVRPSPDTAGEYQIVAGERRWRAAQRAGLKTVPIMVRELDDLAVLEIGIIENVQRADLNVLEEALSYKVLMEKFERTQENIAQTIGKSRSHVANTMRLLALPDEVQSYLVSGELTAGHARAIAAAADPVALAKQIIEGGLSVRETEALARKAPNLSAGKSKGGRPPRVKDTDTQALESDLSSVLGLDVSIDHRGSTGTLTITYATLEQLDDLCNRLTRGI

[8] = molecular target: T7, Caulobacter ParB-His6 (WT); assay: BLI; 1 mM CTP, Mg2+; BLI at 22 C: 100 mM Tris-HCl pH 8.0, 100 mM NaCl, 1 mM MgCl2, 0.005% Tween 20; 1 uM protein dimer. Pull-down: same buffer, room temperature, 5 min, 1 uM ParB, 1 mM NTP; conditions: protein: recombinant; tags: C-terminal His6; chain copies: 2; label: biotin at both 5' ends; blunt; both ends tethered (closed); polymerase may add 3' A
[9] = molecular target: T8, TetR-His6 (class B, from Tn10) (Tn10, UniProt P04483 1-207); assay: BLI; 0.125-2 uM TetR, no NTP; BLI at 22 C: 100 mM Tris-HCl pH 8.0, 100 mM NaCl, 1 mM MgCl2, 0.005% Tween 20; 1 uM protein dimer. Pull-down: same buffer, room temperature, 5 min, 1 uM ParB, 1 mM NTP; conditions: protein: recombinant; tags: C-terminal His6; chain copies: 2; label: 5' biotin on strand 1; blunt
T8 sequence (P04483 whole entry): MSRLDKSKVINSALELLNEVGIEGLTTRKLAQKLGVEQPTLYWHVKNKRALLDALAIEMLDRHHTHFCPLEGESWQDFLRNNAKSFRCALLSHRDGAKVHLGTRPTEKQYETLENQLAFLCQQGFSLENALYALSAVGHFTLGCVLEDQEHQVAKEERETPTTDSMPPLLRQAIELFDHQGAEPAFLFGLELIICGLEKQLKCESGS

[10] = molecular target: T7, Caulobacter ParB-His6 (WT); assay: BLI; 1 mM CDP, Mg2+; BLI at 22 C: 100 mM Tris-HCl pH 8.0, 100 mM NaCl, 1 mM MgCl2, 0.005% Tween 20; 1 uM protein dimer. Pull-down: same buffer, room temperature, 5 min, 1 uM ParB, 1 mM NTP; conditions: protein: recombinant; tags: C-terminal His6; chain copies: 2; label: 5' biotin on strand 1; blunt
[11] = molecular target: T8, TetR-His6 (class B, from Tn10); assay: BLI; no NTP, Mg2+; BLI at 22 C: 100 mM Tris-HCl pH 8.0, 100 mM NaCl, 1 mM MgCl2, 0.005% Tween 20; 1 uM protein dimer. Pull-down: same buffer, room temperature, 5 min, 1 uM ParB, 1 mM NTP; conditions: protein: recombinant; tags: C-terminal His6; chain copies: 2; label: 5' biotin on strand 1; blunt
[12] = molecular target: T7, Caulobacter ParB-His6 (WT); assay: BLI; 0.125-2 uM ParB, no NTP; BLI at 22 C: 100 mM Tris-HCl pH 8.0, 100 mM NaCl, 1 mM MgCl2, 0.005% Tween 20; 1 uM protein dimer. Pull-down: same buffer, room temperature, 5 min, 1 uM ParB, 1 mM NTP; conditions: protein: recombinant; tags: C-terminal His6; chain copies: 2; label: 5' biotin on strand 1; blunt
[13] = molecular target: T7, Caulobacter ParB-His6 (WT); assay: BLI; 1 mM CTP, Mg2+ (no increase in response); BLI at 22 C: 100 mM Tris-HCl pH 8.0, 100 mM NaCl, 1 mM MgCl2, 0.005% Tween 20; 1 uM protein dimer. Pull-down: same buffer, room temperature, 5 min, 1 uM ParB, 1 mM NTP; conditions: protein: recombinant; tags: C-terminal His6; chain copies: 2; label: biotin at both 5' ends; blunt; both ends tethered (closed); polymerase may add 3' A
[14] = molecular target: T7, Caulobacter ParB-His6 (WT); assay: BLI; 1 mM CTP (enhanced); BLI at 22 C: 100 mM Tris-HCl pH 8.0, 100 mM NaCl, 1 mM MgCl2, 0.005% Tween 20; 1 uM protein dimer. Pull-down: same buffer, room temperature, 5 min, 1 uM ParB, 1 mM NTP; conditions: protein: recombinant; tags: C-terminal His6; chain copies: 2; label: biotin at both 5' ends; blunt; both ends tethered (closed); polymerase may add 3' A

T1 sequence (P04483 whole entry): as above

## Cc1c2c(c(O)c3c(O)cccc13)C(=O)[C@]1(O)C(=O)C(C(N)=O)=C(O)[C@@H](N(C)C)[C@@H]1C2 [Anhydrotetracycline]
[1]
  BLI, release of TetR roadblock from tetO DNA: addition of anhydrotetracycline (ahTc), a negative effector of TetR

## Nc1ccn([C@@H]2O[C@H](COP(=O)(O)OP(=O)(O)OP(=O)(O)O)[C@@H](O)[C@H]2O)c(=O)n1 [CTP]
Caulobacter ParB [2]
  DRaCALA membrane-spotting with radiolabelled CTP: Caulobacter ParB binds to radiolabeled CTP in the presence of parS DNA
Zymomonas mobilis ParB
  BLI, ParB accumulation on closed 169 bp parS DNA: CTP facilitates the association of eight ParB orthologs with DNA
Caulobacter ParB [3]
  BMOE cross-linking of N-terminal domains, SDS-PAGE: cross-linking of ParB (Q35C C297S) was also enhanced by CTP and CTPγS
Caulobacter ParB [4]
  BLI, ParB accumulation on closed 169 bp parS DNA: Both ParB (C297S) and ParB (Q35C C297S) were competent at spreading
[5]
  BLI, ParB accumulation on closed 169 bp parS DNA: CTP facilitates the association of eight ParB orthologs with DNA

B1: Caulobacter ParB-His6 (Q35C C297S) (natural protein, Caulobacter crescentus, UniProt P0CAV8 1-304, looked up)
chain: T7 sequence with Q35C, C297S
notes: ParB, chromosome partitioning protein of Caulobacter crescentus; the cross-link reports engagement of the N-terminal domains of two subunits; The lone native cysteine C297 was changed to serine and Q35C was engineered in the N-terminal domain; Cloning in pET21b may add linker residues before the His6 tag (surmised); also called ParB (Q35C C297S); ParB (C297S Q35C); not shown: His6, C-terminal, …
[6]
  binding result: binds

B2: 169 bp parS closed DNA (dsDNA)
DNA 1: CGCCAGGGTTTTCCCAGTCACGACGTTGTAAAACGACGGCCAGTGAATTCGAGCTCGGTACCCGCAGGAGGACGTAGGGTAGGGGGATGTTTCACGTGAAACAGGGGATCCTCTAGAGTCGACCTGCAGGCATGCAAGCTTGGCGTAATCATGGTCATAGCTGTTTCCT
DNA 2: AGGAAACAGCTATGACCATGATTACGCCAAGCTTGCATGCCTGCAGGTCGACTCTAGAGGATCCCCTGTTTCACGTGAAACATCCCCCTACCCTACGTCCTCCTGCGGGTACCGAGCTCGAATTCACTGGCCGTCGTTTTACAACGTCGTGACTGGGAAAACCCTGGCG
[7]
  binding signal: ~5 fold slower dissociation vs buffer without CTP
[8]
  binding signal: ~12 fold BLI response vs no NTP

B3: 20 bp parS (dsDNA)
DNA 1: GGGATGTTTCACGTGAAACA
DNA 2: TGTTTCACGTGAAACATCCC
[9]
  binding result: no binding
[10]
  binding result: binds

B4: 28 bp tetO (dsDNA)
DNA 1: GGGGACTCTATCATTGATAGAGTATGC
DNA 2: GCATACTCTATCAATGATAGAGTCCCC
[11]
  binding result: binds
[12]
  binding result: no binding

B5: 169 bp scrambled parS closed DNA (dsDNA)
DNA 1: B2 DNA 1 with T88A, G89A, T92A, G96T, T97G, G98A, A99G, A100T, A101T, C102T
DNA 2: B2 DNA 2 with G68A, T69A, T70A, T71C, C72T, A73C, C74A, A78T, C81T, A82T
[13]
  binding result: no binding

B6: 170 bp parS-tetO closed DNA (dsDNA)
DNA 1: CGCCAGGGTTTTCCCAGTCACGACGTTGTAAAACGACGGCCAGAATTCGCAACGTGTGTTTCACGTGAAACAGCCTTGAACTGATAACGACTCTATCATTGATAGAGTGTTCTCTCCACGGGATCCCCAGGCATGCAAGCTTGGCGTAATCATGGTCATAGCTGTTTCCT
DNA 2: AGGAAACAGCTATGACCATGATTACGCCAAGCTTGCATGCCTGGGGATCCCGTGGAGAGAACACTCTATCAATGATAGAGTCGTTATCAGTTCAAGGCTGTTTCACGTGAAACACACGTTGCGAATTCTGGCCGTCGTTTTACAACGTCGTGACTGGGAAAACCCTGGCG
[14]
  binding result: binds
